Experimental findings from US20040022767A1 (Genentech, published 2004) are described below.

The target of assay [1] is T1, soluble hek/Fc fusion protein (human, UniProt P29320 21-541; P01857 99-330 = IgG part, limits assumed).
T1 construct: extracellular domain;domain: Fc region (hinge to native C-terminus); The extracellular domain and the dimeric state are inferred from that analogy
Nature of the assay: indirect Scatchard analysis, biphasic, second component; hek/Fc titrated on transfected CV-1/EBNA-1 cells, detected with 125I-mouse anti-human IgG.

The target of assay [2] is T2, soluble rat elk/Fc fusion protein (rat; human, UniProt P09759 18-540; P01857 99-330 = IgG part, limits assumed).
T2 construct: extracellular domain;domain: Fc region (hinge to native C-terminus)
Nature of the assay: indirect Scatchard analysis; elk/Fc titrated on transfected CV-1/EBNA-1 cells, detected with 125I-mouse anti-human IgG. The source says: CV1-EBNA-1 cells (described in Example 3) in 12-well plates (2.5×10⁵ cells/well) were transfected with an expression vector containing the clone E7 elk-L cDNA. The mammalian expression vector, designated pDC410, is similar to pDC406 (McMahan et al., EMBO J. 10:2821, 1991). In pDC410, the EBV origin of replication of pDC406 is replaced by DNA encoding the SV40 large T antigen (driven from an SV40 promoter). The pDC410 multiple cloning site (mcs) differs from that of pDC406 in that it contains additional restriction sites and three stop codons (one in each reading frome). A T7 polymerase promoter downstream of the mcs facilitates sequencing of DNA inserted into the mcs. The transfected cells were cultured for two days to permit expression of the elk-L protein, then washed with BM-NFDMv (the binding medium described in Example 2, also containing 50 mg/ml nonfat dry milk), and incubated with various concentrations of the elk/Fc fusion protein prepared in Example 1, for 1 hour at 37° C. Subsequently, cells were washed and incubated with a constant saturating concentration of the ¹²⁵I-labeled mouse anti-human IgG antibody prepared in Example 2 (40 ng/ml) in binding medium with gentle agitation for 1 hour at 37° C. Cells then were harvested by trypsinization. […]

Assay [3] concerns the target T1, soluble hek/Fc fusion protein. Nature of the assay: indirect Scatchard analysis, biphasic, first component; hek/Fc titrated on transfected CV-1/EBNA-1 cells, detected with 125I-mouse anti-human IgG.
For assay [4], the target named is T2, soluble rat elk/Fc fusion protein. Nature of the assay: indirect Scatchard analysis, biphasic, second component; elk/Fc titrated on transfected CV-1/EBNA-1 cells, detected with 125I-mouse anti-human IgG.
Assay [5] shares this target. Nature of the assay: indirect Scatchard analysis, biphasic, first component; elk/Fc titrated on transfected CV-1/EBNA-1 cells, detected with 125I-mouse anti-human IgG.
For assay [6], the target named is T1, soluble hek/Fc fusion protein. Nature of the assay: indirect Scatchard analysis; hek/Fc titrated on transfected CV-1/EBNA-1 cells, detected with 125I-mouse anti-human IgG.

T2 sequence (P09759 other isoform, or with tags, fused parts or gaps limits assumed): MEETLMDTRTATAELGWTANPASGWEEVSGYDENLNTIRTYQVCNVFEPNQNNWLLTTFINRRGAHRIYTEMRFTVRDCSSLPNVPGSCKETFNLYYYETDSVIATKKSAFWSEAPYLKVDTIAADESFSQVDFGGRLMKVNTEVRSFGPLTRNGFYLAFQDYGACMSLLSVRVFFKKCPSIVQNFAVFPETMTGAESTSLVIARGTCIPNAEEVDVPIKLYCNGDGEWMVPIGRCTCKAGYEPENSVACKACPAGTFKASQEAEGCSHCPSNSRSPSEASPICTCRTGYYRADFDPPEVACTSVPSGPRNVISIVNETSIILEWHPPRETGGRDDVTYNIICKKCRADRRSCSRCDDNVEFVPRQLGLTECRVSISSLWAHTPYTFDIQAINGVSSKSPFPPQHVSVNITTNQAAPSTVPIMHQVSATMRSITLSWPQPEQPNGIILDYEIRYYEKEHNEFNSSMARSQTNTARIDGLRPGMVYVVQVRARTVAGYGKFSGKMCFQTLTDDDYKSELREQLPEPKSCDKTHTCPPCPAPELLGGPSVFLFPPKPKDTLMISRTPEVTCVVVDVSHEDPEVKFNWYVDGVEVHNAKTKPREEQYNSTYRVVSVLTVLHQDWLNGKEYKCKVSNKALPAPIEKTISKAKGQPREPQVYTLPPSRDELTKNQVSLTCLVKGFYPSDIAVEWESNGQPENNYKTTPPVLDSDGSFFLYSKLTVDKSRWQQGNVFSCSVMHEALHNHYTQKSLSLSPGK
T1 sequence (P29320 other isoform, or with tags, fused parts or gaps limits assumed): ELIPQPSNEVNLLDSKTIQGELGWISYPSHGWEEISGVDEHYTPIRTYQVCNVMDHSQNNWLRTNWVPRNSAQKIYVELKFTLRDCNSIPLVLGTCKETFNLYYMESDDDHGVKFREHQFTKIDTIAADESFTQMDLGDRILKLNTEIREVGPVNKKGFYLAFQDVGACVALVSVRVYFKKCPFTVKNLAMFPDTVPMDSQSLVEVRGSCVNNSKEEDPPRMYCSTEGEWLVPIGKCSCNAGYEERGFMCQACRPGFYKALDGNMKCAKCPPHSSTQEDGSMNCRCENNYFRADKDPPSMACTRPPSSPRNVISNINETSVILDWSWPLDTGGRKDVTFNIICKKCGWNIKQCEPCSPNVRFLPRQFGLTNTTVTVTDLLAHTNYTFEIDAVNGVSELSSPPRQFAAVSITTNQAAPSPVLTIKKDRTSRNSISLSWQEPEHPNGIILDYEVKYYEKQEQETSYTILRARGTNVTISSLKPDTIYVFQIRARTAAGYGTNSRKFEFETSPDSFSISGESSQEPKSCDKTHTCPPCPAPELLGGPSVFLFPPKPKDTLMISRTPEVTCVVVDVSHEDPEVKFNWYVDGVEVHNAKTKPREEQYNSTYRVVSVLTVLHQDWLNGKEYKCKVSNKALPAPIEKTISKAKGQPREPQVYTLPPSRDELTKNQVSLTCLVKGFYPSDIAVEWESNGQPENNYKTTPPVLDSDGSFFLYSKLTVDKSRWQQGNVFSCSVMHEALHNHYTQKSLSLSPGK

B1: human elk ligand (elk-L), clone E7, expressed on transfected CV-1/EBNA-1 cells (ligand)
chain: ATPLAKNLEPVSWSSLNPKFLSGKGLVIYPKIGDKLDIICPRAEAGRPYEYYKLYLVRPEQAAACSTVLDPNVLVTCNRPEQEIRFTIKFQEFSPNYMGLEFKKHHDYYITSTSNGSLEGLENREGGVCRTRTMKIIMKVGQDPNAVTPEQLTTSRPSKEADNTVKMATQAPGSRGSLGDSDGKHETVNQEEKSGPGASGGSSGDPDGFFNSKVALFAAVGAGCVIFLLIIIFLTVLLLKLRKRHRKHTQQRAAALSLSTLASPKGGSGTAGTEPSDIIIPLRTTENNYCPHYEKVSGDYGHPVYIVQEMPPQSPANIYYKV
For the molecule B1, the Ka came out at 2.9e+06 M⁻¹ in assay [1], 1.08e+09 M⁻¹ in assay [2] and 2.3e+07 M⁻¹ in assay [3].

B2: B61 protein expressed on transfected CV-1/EBNA-1 cells (ligand, human, UniProt P20827 19-182, looked up)
chain: DRHTVFWNSSNPKFRNEDYTIHVQLNDYVDIICPHYEDHSVADAAMEQYILYLVEHEEYQLCQPQSKDQVRWQCNRPSAKHGPEKLSEKFQRFTPFTLGKEFKEGHSYYYISKPIHQHEDRCLRLKVTVSGKITHSPQAHDNPQEKRLAADDPEVRVLHSIGHS
notes: whole, on cells
For the molecule B2, the Ka in assay [4] was 7e+07 M⁻¹; in assay [5], 2.3e+08 M⁻¹; in assay [6] it was 5.5e+07 M⁻¹.

B3: hek-L protein designated C6, expressed on transfected CV-1/EBNA-1 cells (ligand, UniProt P52798 26-170, looked up)
chain: LRHVVYWNSSNPRLLRGDAVVELGLNDYLDIVCPHYEGPGPPEGPETFALYMVDWPGYESCQAEGPRAYKRWVCSLPFGHVQFSEKIQRFTPFSLGFEFLPGETYYYISVPTPESSGQCLRLQVSVCCKERKSESAHPVGSPGES
notes: whole, on cells; also called hek-L C6; hek ligand C6
On to B3, for which the figures for the Ka in assay [4], in assay [5] and in assay [6] were 5.4e+07 M⁻¹, 1.3e+08 M⁻¹ and 2e+08 M⁻¹, respectively.

B4: hek-L protein designated A2, expressed on transfected CV-1/EBNA-1 cells (ligand, UniProt P52797 23-214, looked up)
chain: QGPGGALGNRHAVYWNSSNQHLRREGYTVQVNVNDYLDIYCPHYNSSGVGPGAGPGPGGGAEQYVLYMVSRNGYRTCNASQGFKRWECNRPHAPHSPIKFSEKFQRYSAFSLGYEFHAGHEYYYISTPTHNLHWKCLRMKVFVCCASTSHSGEKPVPTLPQFTMGPNVKINVLEDFEGENPQVPKLEKSISG
notes: whole, on cells; also called hek-L A2; hek ligand A2
For B4, the Ka in assay [4] amounted to 3.5e+07 M⁻¹; in assay [5], 2.7e+08 M⁻¹; in assay [6] it was 2e+08 M⁻¹.
